For orientation: EC50 means the concentration giving half of the maximal effect. Read a high EC50 as weaker potency.

In assay [1] the target is PD-L1 (human) (UniProt Q9NZQ7). The assay is described as follows: flow cytometry, CHO cells stably expressing PD-L1.
Assay [2] addresses human CTLA-4 (human) (UniProt P16410). The assay is described as follows: flow cytometry, CHO cells stably expressing CTLA4.
The target in assay [3] is CD28 (human) (UniProt P10747). Nature of the assay: flow cytometry, Jurkat cells (CD28). For orientation: A flow cytometer gives signals particle by particle.
The target in assay [4] is CD28 (human) (UniProt P10747).
Assay [5] concerns the target PD-L1 (human) (UniProt Q9NZQ7). The assay is described as follows: flow cytometry, CHO cells expressing PD-L1.
Target sequence in this assay (Q9NZQ7 19-290): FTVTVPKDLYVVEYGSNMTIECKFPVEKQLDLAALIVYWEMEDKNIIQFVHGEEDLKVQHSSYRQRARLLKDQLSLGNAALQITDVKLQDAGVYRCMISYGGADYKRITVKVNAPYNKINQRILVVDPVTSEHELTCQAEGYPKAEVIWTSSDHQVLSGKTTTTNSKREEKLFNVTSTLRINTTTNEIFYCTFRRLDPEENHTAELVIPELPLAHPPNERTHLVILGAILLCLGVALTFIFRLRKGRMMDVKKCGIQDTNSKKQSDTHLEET
The target of assay [6] is human CTLA-4 (human) (UniProt P16410). The assay is described as follows: flow cytometry, CHO cells expressing CTLA4.
Target sequence in this assay (P16410 36-223): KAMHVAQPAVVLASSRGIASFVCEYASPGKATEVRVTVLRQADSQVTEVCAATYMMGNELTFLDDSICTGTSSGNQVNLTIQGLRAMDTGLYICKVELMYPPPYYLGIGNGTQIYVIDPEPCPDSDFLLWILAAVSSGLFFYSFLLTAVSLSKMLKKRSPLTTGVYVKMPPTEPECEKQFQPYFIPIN
Assay [7] addresses CD28 (human) (UniProt P10747). Nature of the assay: flow cytometry, Jurkat/IL2 reporter cells (CD28).
Assay [8] deals with PD-L1 (human) (UniProt Q9NZQ7). The assay is described as follows: flow cytometry, CHO cells expressing huPD-L1.
For assay [9], the target named is CD28 (human) (UniProt P10747). This is another data set of the same source.

As for “CD80 (A91G/I118V/T120S/T130A) ECD-Fc (Fc fusion)”, the results for the MFI at 66.7 nM in the assay with PD-L1 (human) [1], with human CTLA-4 (human) [2] and with CD28 (human) [3] were 107, 24800 and 720, respectively. This substance also registered an EC50 with human CTLA-4 (human) [2] of 4.3 nM.
Regarding “CD80 (E35D/D46E/M47V/V68M/D90G/K93E) ECD-Fc (Fc fusion)”, the MFI at 66.7 nM with PD-L1 (human) [1] amounted to 287. In the assay with human CTLA-4 (human) [2], this substance displayed an EC50 of 10.5 nM and an MFI at 66.7 nM of 24600.
For the substance “CD80 (E88D/K89R/D90K/A91G/F92Y/K93R) ECD-Fc (Fc fusion)”, the figures for the MFI at 66.7 nM with PD-L1 (human) [1], with human CTLA-4 (human) [2] and with CD28 (human) [3] were 108, 26400 and 4050, respectively. The substance further yielded an EC50 in the assay with human CTLA-4 (human) [2] of 3.6 nM.
“CD80 (S21P/L70Q/D90G/I118V/T120S/T130A) ECD-Fc (Fc fusion)”: the MFI at 66.7 nM with PD-L1 (human) [1] is 103; with CD28 (human) [3], 282. Further, the EC50 in the assay with human CTLA-4 (human) [2] is 8.8 nM.
Take “CD80 E35D/D46V/M47L/V68M/L85Q/E88D IgV-Fc, GS(G4S)3 linker (Fc fusion)”: the results for the MFI at 33.3 nM in the assay with PD-L1 (human) [1] and in the assay with CD28 (human) [3] were 22600 MFI and 267 MFI, respectively.
Substance “CD80 E35D/M43L/L70M IgV-Fc (inert) (Fc fusion)” had a Jurkat/IL2 reporter RLU at 50 nM, CHO/OKT3 aAPC without PD-L1 in the assay with CD28 (human) [4] of 515 RLU.
On to “CD80 E35D/M47V/N48K/V68M/K89N IgV-Fc, GS(G4S)3 linker (Fc fusion)”, for which the results for the MFI at 33.3 nM with PD-L1 (human) [1] and with CD28 (human) [3] were 24200 MFI and 2110 MFI, respectively.
In turn, “CD80 E35D/M47V/N48K/V68M/K89N IgV-Fc, GS(G4S)5 linker (Fc fusion)” came in with an MFI at 33.3 nM with PD-L1 (human) [1] of 22700 MFI.
Turning to “CD80 IgV-Fc E24D/Q27R/E35D/T41S/M47V/L85Q (Fc fusion)”, the MFI at 33.3 nM in the assay with PD-L1 (human) [1] is 2860 MFI; in the assay with human CTLA-4 (human) [2], 13900 MFI; with CD28 (human) [3], 66 MFI.
As to “CD80 IgV-Fc E35D/M47I/T62S/L85Q/E88D (Fc fusion)”, the figures for the MFI at 33.3 nM with PD-L1 (human) [1] and with human CTLA-4 (human) [2] were 8420 MFI and 8910 MFI, respectively.
“CD80 IgV-Fc H18Y/E35D/M47I/V68M/A71G/R94L (Fc fusion)”: the MFI at 33.3 nM in the assay with PD-L1 (human) [1] was found to be 14500 MFI; with CD28 (human) [3] it was 1900 MFI.
As to “CD80 IgV-Fc Q33R/M47V/T62N/A71G (Fc fusion)”, the MFI at 33.3 nM with PD-L1 (human) [1] worked out at 12200 MFI; with human CTLA-4 (human) [2] it was 308 MFI.
As to CD80 IgV-Fc deltaE10-A98 (Fc fusion), the MFI at 33.3 nM in the assay with PD-L1 (human) [1] is 45 MFI; in the assay with human CTLA-4 (human) [2], 125 MFI; with CD28 (human) [3], 15 MFI.
As for “CD80 T13R/Q33L/E35D/M47L/V68M/L85M IgV-Fc (Fc fusion)”, the figures for the Fold change to WT CD80 with PD-L1 (human) [5] and with CD28 (human) [3] were 62.7 fold and 0.5 fold, respectively. The MFI at 33.3 nM with PD-L1 (human) [5] was 3230 MFI; with human CTLA-4 (human) [6], 141 MFI; with CD28 (human) [3], 15.7 MFI.
With “CD80 T13R/Q33L/E35D/M47V/T62S/V68M/L85M IgV-Fc (Fc fusion)”, the results for the Fold change to WT CD80 in the assay with PD-L1 (human) [5] and with CD28 (human) [3] were 77 fold and 0.5 fold, respectively. The MFI at 33.3 nM with PD-L1 (human) [5] stood at 3970 MFI; with human CTLA-4 (human) [6] it was 105 MFI; with CD28 (human) [3], 16 MFI.
In the assay with PD-L1 (human) [5], “CD80 T13R/Q33R/E35D/M38I/M47L/V68M IgV-Fc (Fc fusion)” showed a Fold change to WT CD80 of 87 fold. Further, the values for the MFI at 33.3 nM in the assay with PD-L1 (human) [5], with human CTLA-4 (human) [6] and with CD28 (human) [3] were 4480 MFI, 193 MFI and 13.8 MFI, respectively.
In the case of “CD80 T13R/Q33R/E35D/M38I/M47L/V68M/L85M/R94Q IgV-Fc (Fc fusion)”, the MFI at 33.3 nM with PD-L1 (human) [5] stood at 20400 MFI; in the assay with human CTLA-4 (human) [6] it was 19100 MFI; with CD28 (human) [3], 15.2 MFI.
For Fc control (Example 24), the Fold change to WT CD80 is 1.8 fold with PD-L1 (human) [1], 0 fold with human CTLA-4 (human) [2] and 0.2 fold with CD28 (human) [3]. In addition, the MFI at 11.1 nM in the assay with PD-L1 (human) [1] was found to be 158 MFI; with human CTLA-4 (human) [2], 106 MFI; with CD28 (human) [3] it was 26 MFI.
“WT CD80 ECD-Fc (Abcam) (from UniProt P33681) (Fc fusion)”: the MFI at 33.3 nM in the assay with CD28 (human) [7] is 709 MFI; in the assay with PD-L1 (human) [8], 128 MFI.
In the case of “WT CD80 ECD-Fc (R&D Systems) (Fc fusion)”, the EC50 with PD-L1 (human) [1] came out at 31.2 nM; with CD28 (human) [3], 164 nM. The MFI at 11.1 nM with PD-L1 (human) [1] came out at 86 MFI; with CD28 (human) [3], 139 MFI.
Regarding WT CD80 ECD-Fc (effector) (Fc fusion), in the assay with CD28 (human) [9], the IL-2 release, primary T cells + K562/OKT3 (No PD-L1), 100 nM is 23100 and the IL-2 release, primary T cells + K562/OKT3/PD-L1, 100 nM stood at 8390.
With WT CD80 IgV-Fc (effector) (Fc fusion), in the assay with CD28 (human) [9], the IL-2 release, primary T cells + K562/OKT3 (No PD-L1), 100 nM was 6200.
The same measure, in the same setting: as for WT IgG1 Fc Control, the figure is 6260.
Regarding “Wildtype CD80 ECD-Fc (effector Fc, Example 31) (Fc fusion)”, the figures for the MFI at 66.7 nM with PD-L1 (human) [1], with human CTLA-4 (human) [2] and in the assay with CD28 (human) [3] were 104, 25300 and 120, respectively. Besides, the EC50 with human CTLA-4 (human) [2] worked out at 4 nM.
As for “variant CD80 IgV-Fc (inert) A26P/E35D/M47I/V68M/A71G/D90G (Fc fusion)”, the MFI at 33.3 nM with human CTLA-4 (human) [2] amounted to 19800 MFI; with CD28 (human) [3], 8190 MFI.
In the case of “variant CD80 IgV-Fc (inert) H18F/A26H/E35D/M47L/V68M/A71G/D90G (Fc fusion)”, the MFI at 33.3 nM with PD-L1 (human) [1] is 20700 MFI; with human CTLA-4 (human) [2], 16400 MFI; in the assay with CD28 (human) [3], 8390 MFI.

The values are drawn from US20220177587A1, “METHODS AND USES OF VARIANT CD80 FUSION PROTEINS AND RELATED CONSTRUCTS” (Alpine Immune Sciences, Inc., priority 2018, published 2022).
